According to paper PMC11475653:

Details: ubiquitination at K45

With AMBRA1: K45R the degradation_or_half_life was “decreases”.
